Source: patent publication US20220332813A1 (UNIVERSITY OF MARYLAND BALTIMORE, published 2022)

Tests used:
[1] = biological target: T1, human recombinant tau (2N4R) (human, UniProt P10636-8 1-441); experiment: SPR, SorLA fragment 82-181 immobilised, increasing tau
T1 construct: Radio-iodinated in the cell assays; also called monomeric tau; full-length tau (2N4R)

[2] = biological target: T2, hyperphosphorylated 2N4R tau produced by Sf9 cells (human, UniProt P10636-8 1-441, hyperphosphorylated (produced in Sf9 insect cells, intermediate phosphorylation state); sites not stated); experiment: SPR equilibrium (KD eq, Req fit)
T2 construct: His-tagged; also called SF9 tau; 2N4R SF9
T2 sequence (P10636 other isoform, or with tags, fused parts or gaps limits assumed): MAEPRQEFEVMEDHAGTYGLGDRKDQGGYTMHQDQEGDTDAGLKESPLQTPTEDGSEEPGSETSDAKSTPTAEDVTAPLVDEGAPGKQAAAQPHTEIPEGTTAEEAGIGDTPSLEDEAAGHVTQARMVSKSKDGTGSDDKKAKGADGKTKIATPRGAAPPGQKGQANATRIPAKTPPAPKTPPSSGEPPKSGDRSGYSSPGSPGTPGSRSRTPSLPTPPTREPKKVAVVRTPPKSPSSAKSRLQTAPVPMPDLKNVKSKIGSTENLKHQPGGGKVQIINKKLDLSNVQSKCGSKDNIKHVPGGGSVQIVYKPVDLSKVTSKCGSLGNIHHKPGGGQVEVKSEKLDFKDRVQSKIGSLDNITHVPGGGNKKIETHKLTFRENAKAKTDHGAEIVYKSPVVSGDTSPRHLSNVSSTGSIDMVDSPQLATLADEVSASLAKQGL

[3] = biological target: T1, human recombinant tau (2N4R); experiment: SPR, from kinetic parameters of the 1:1 fit
[4] = biological target: T2, hyperphosphorylated 2N4R tau produced …; experiment: SPR, from kinetic parameters of the 1:1 fit
[5] = biological target: T1, human recombinant tau (2N4R); experiment: SPR single cycle, VPS10P domain immobilised, 1:1 fit
[6] = biological target: T2, hyperphosphorylated 2N4R tau produced …; experiment: as above

T1 sequence (P10636 other isoform, or with tags, fused parts or gaps limits assumed): as above

B1: commercially available fragment of SorLA comprising residues 82-181 (receptor)
chain: SAALQPEPIKVYGQVSLNDSHNQMVVHWAGEKSNVIVALARDSLALARPKSSDVYVSYDYGKSFKKISDKLNFGLGNRSEAVIAQFYHSPADNKRYIFAD
notes: The range may be a misprint for 82-753; also called SorLA fragment
Kd [1]: 40 nM

B2: recombinant human SORLA VPS10P domain (residues 82-753) (receptor)
chain: SAALQPEPIKVYGQVSLNDSHNQMVVHWAGEKSNVIVALARDSLALARPKSSDVYVSYDYGKSFKKISDKLNFGLGNRSEAVIAQFYHSPADNKRYIFADAYAQYLWITFDFCNTLQGFSIPFRAADLLLHSKASNLLLGFDRSHPNKQLWKSDDFGQTWIMIQEHVKSFSWGIDPYDKPNTIYIERHEPSGYSTVFRSTDFFQSRENQEVILEEVRDFQLRDKYMFATKVVHLLGSEQQSSVQLWVSFGRKPMRAAQFVTRHPINEYYIADASEDQVFVCVSHSNNRTNLYISEAEGLKFSLSLENVLYYSPGGAGSDTLVRYFANEPFADFHRVEGLQGVYIATLINGSMNEENMRSVITFDKGGTWEFLQAPAFTGYGEKINCELSQGCSLHLAQRLSQLLNLQLRRMPILSKESAPGLIIATGSVGKNLASKTNVYISSSAGARWREALPGPHYYTWGDHGGIITAIAQGMETNELKYSTNEGETWKTFIFSEKPVFVYGLLTEPGEKSTVFTIFGSNKENVHSWLILQVNATDALGVPCTENDYKLWSPSDERGNECLLGHKTVFKRRTPHATCFNGEDFDRPVVVSNCSCTREDYECDFGFKMSEDLSLEVCVPDPEFSGKSYSPPVPCPVGSTYRRTRGYRKISGDTCSGGDVEARLEGELVPCP
notes: also called SORL1 VPS10 domain; R&D Systems 9880-LA
Kd [2]: 95 nM | Kd [3]: 15 nM | Kd [4]: 78 nM | koff [5]: 0.41 s⁻¹ | kon [5]: 5e+07 M⁻¹ s⁻¹ | koff [6]: 0.0061 s⁻¹ | kon [6]: 85000 M⁻¹ s⁻¹
